Results on ten substances are retold here after patent publication US20200283508A1.

The target in assay [1] is human fibrinogen (human) (UniProt P02671). The experiment in a line: ELISA, GST-tagged fragment on immobilized Fg.
Assay [2] has the same target. The experiment in a line: ELISA on coated Fg; Km = protein concentration at half of the maximum; R2 0.986. (In general: An ELISA detects its analyte on a solid surface through an enzyme-linked reagent.)
Assay [3] shares this target. The experiment in a line: ELISA on coated Fg; Km = protein concentration at half of the maximum; R2 0.991.
Assay [4] has the same target. Put plainly: ELISA, GST-tagged fragment on immobilized Fg; apparent affinity.
Assay [5] shares this target. Put plainly: solid phase binding assay, Efb coated, Fg titrated; apparent KD; Efb coated on the well, fibrinogen titrated.
The target is the same in assay [6]. The experiment in a line: ELISA on coated Fg; Km = protein concentration at half of the maximum; R2 0.995.
For assay [7], the target named is Fibrinogen-D fragment (human) (UniProt P02671). The experiment in a line: ITC (VP-ITC), peptide titrated into 10 µM Fg-D, one-site model.
Sequence of Fibrinogen-D fragment (human) (P02671 130-216 limits assumed, chain 1 of 3): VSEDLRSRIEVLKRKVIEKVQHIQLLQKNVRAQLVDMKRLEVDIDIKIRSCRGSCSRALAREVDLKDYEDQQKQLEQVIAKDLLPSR
Sequence of Fibrinogen-D fragment (human) (P02675 164-491 limits assumed, chain 2 of 3, further chain): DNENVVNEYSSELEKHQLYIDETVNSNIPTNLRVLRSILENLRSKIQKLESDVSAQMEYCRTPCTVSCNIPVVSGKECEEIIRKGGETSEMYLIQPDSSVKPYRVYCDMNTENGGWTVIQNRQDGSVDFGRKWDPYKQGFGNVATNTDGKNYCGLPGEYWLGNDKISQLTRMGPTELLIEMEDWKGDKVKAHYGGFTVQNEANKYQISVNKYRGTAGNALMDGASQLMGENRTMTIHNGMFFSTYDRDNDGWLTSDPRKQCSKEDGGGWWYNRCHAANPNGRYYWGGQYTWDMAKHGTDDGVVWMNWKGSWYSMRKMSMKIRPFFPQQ
Sequence of Fibrinogen-D fragment (human) (P02679 114-432 limits assumed, chain 3 of 3, further chain): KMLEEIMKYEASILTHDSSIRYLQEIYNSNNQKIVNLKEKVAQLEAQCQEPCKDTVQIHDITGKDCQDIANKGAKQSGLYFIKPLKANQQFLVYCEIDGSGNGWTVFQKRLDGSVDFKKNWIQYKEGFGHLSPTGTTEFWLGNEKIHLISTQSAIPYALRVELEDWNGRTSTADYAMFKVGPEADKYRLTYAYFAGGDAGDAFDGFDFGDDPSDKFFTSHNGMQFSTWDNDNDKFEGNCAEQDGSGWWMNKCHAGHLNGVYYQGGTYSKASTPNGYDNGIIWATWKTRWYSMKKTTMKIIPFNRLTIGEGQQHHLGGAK
For assay [8], the target named is human fibrinogen (human) (UniProt P02671). Put plainly: competition ELISA on coated Fg; competitor 4 nM rCoa-C GST fusion.
The target in assay [9] is Fibrinogen-D fragment (human) (UniProt P02671). Put plainly: isothermal titration calorimetry, peptide into 10 µM Fg-D, one-site model.
For assay [10] the target is unchanged. The experiment in a line: ITC (VP-ITC), fit box Model: OneSites beside the isotherm.
Assay [11] shares this target. The experiment in a line: ITC (VP-ITC), fit box Model: OneSites beside the isotherm; unit not given.
The target in assay [12] is human fibrinogen (human) (UniProt P02671). The experiment in a line: competition ELISA on coated Fg; competitor 2 nM rEfb-N GST fusion.
For assay [13] the target is unchanged. Put plainly: competition ELISA on coated Fg; competitor 2 nM rCoa-C GST fusion.

Sequence of human fibrinogen (human) (P02671 20-629 limits assumed, form in doubt, chain 1 of 3): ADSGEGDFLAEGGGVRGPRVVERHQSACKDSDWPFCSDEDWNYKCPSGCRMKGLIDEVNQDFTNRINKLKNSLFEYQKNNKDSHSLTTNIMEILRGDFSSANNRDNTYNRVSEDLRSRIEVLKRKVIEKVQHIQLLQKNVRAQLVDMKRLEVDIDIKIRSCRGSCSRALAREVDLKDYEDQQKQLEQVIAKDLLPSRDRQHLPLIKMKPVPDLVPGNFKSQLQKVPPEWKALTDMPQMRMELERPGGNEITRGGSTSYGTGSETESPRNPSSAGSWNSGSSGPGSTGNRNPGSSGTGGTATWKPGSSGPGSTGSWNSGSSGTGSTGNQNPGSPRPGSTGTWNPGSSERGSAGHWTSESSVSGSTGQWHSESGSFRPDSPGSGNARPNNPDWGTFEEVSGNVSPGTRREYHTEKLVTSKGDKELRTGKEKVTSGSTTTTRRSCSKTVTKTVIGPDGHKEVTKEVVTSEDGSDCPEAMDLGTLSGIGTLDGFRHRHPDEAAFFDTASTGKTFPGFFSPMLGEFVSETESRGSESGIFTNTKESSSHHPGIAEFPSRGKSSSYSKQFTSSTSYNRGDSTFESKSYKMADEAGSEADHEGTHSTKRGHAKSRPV
Sequence of human fibrinogen (human) (P02675 31-491 limits assumed, form in doubt, chain 2 of 3, further chain): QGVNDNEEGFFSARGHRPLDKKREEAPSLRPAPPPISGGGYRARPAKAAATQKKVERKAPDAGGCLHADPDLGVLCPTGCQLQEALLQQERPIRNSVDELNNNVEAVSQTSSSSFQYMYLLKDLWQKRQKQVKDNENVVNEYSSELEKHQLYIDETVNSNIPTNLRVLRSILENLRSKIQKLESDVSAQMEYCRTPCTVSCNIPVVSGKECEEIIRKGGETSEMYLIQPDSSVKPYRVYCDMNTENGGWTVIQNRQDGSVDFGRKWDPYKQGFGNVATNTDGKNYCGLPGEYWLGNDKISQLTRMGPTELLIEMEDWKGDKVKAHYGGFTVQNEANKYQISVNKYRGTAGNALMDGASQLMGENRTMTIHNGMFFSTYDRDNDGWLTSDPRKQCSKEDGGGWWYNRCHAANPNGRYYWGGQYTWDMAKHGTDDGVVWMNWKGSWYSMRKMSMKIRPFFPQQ
Sequence of human fibrinogen (human) (P02679 27-453 limits assumed, form in doubt, chain 3 of 3, further chain): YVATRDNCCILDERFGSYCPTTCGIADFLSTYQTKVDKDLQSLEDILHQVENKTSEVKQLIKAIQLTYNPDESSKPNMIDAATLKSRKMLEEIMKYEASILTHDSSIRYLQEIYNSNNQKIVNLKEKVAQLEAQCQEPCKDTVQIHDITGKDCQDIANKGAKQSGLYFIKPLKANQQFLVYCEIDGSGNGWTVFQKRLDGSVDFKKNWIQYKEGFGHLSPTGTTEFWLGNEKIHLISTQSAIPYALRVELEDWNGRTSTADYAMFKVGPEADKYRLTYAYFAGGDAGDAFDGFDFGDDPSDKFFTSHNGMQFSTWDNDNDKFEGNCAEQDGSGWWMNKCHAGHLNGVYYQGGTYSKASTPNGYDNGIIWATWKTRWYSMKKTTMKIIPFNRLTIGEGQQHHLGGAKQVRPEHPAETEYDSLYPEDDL

For the substance “Coa-C (Coa 311-636) (from UniProt P08515 1-218)”, the EC50 in the assay with human fibrinogen (human) [1] was 7.5 nM.
As for “Coa-F (Coa 311-505) (from UniProt P08515 1-218)”, in the assay with human fibrinogen (human) [2], the Km stood at 3.2 nM.
For “Coa-N (Coa 27-310) (from UniProt P08515 1-218)”, the Km with human fibrinogen (human) [3] was determined as 204 nM.
For Coa-R (Coa 506-636), the Kd with human fibrinogen (human) [4] was found to be 0.8 nM.
Regarding “Extracellular fibrinogen binding protein (Efb), full-length secreted form 30-165, His-tagged (from UniProt A6QG59 30-165)”, the Kd with human fibrinogen (human) [5] was determined as 1 nM.
“recombinant Coagulase, Coa (27-636) (from UniProt P08515 1-218)”: in the assay with human fibrinogen (human) [6], the Km was determined as 8.9 nM.
Regarding sCoa-RI3 (Coa 502-528) (peptide), in assay [7], the N (binding ratio) came to 0.9. The same substance came in with an IC50 (read off the curve) with human fibrinogen (human) [8] of 10000 nM. In [9], this substance yielded a Kd of 124 nM.
With sCoa-RV1 (Coa 610-636) (peptide), the N (binding ratio) in assay [10] turned out to be 0.679. For the same substance, the N (binding ratio) in assay [7] came to 0.68. Also, the IC50 (read off the curve) in the assay with human fibrinogen (human) [8] turned out to be 10000 nM. Moreover, in [11], the ΔH was -39800 and the ΔS was -101. The substance further had a Kd in assay [9] of 139 nM.
In the case of synthetic peptide Coa-O (Coa 474-505), the IC50 (read off the curve) in the assay with human fibrinogen (human) [12] is 2000 to 3000 nM; with human fibrinogen (human) [13] it was 9000 nM.
On to synthetic peptide Coa-RI (Coa 506-532), for which the IC50 (read off the curve) in the assay with human fibrinogen (human) [13] came to 3000 nM. The same substance returned a binding stoichiometry in [9] of 0.93.

Usually EC50 stands for the concentration at which the effect is half-maximal. For orientation: Km means the substrate concentration at which the rate is half of its maximum.
